From patent publication US20240132578A1

Assays:
Assay in all cases: cell-based or functional assay
[1] = target: HIV-1 Env of isolate 92UG037 (clade A pseudovirus) (HIV-1)
[2] = target: HIV-1 envelope glycoprotein (Env) of isolate MGRM-C-002 (HIV-1)
[3] = target: HIV-1 Env of isolate QH0692.42 (Acute), clade B (HIV-1)
[4] = target: HIV-1 Env of isolate APV_6, clade B (HIV-1)
[5] = target: HIV-1 envelope glycoprotein (Env) of isolate MGRM-C-023 (HIV-1)
[6] = target: HIV-1 Env of isolate TRO.11 (Acute), clade B (HIV-1)
[7] = target: HIV-1 envelope glycoprotein (Env) of isolate MGRM-C-017 (HIV-1)
[8] = target: HIV-1 Env of isolate MGRM-Chronic-B-004, clade B (HIV-1)
[9] = target: HIV-1 envelope glycoprotein (Env) of isolate LAVIC_18 (HIV-1)
[10] = target: HIV-1 Env of pseudovirus MGRM-F1-008 (clade F) (HIV-1)
[11] = target: HIV-1 Env of isolate 92UG005 (clade D pseudovirus) (HIV-1)
[12] = target: HIV-1 Env of isolate MGRM-A-011 (clade A pseudovirus) (HIV-1)
[13] = target: HIV-1 Env of isolate MGRM-A-008 (clade A pseudovirus) (HIV-1)
[14] = target: HIV-1 Env of isolate MGRM-D-008 (clade D pseudovirus) (HIV-1)
[15] = target: HIV-1 Env of pseudovirus isolate MGRM-C-019 (clade C) (HIV-1)
[16] = target: HIV-1 Env of isolate MGRM-A-007 (subtype A) (HIV-1)
[17] = target: HIV-1 Env of isolate JRFL (HIV-1)
[18] = target: HIV-1 Env of isolate MGRM-D-014 (pseudovirus) (HIV-1)
[19] = target: HIV-1 Env of isolate MGRM-AG-011 (subtype AG) (HIV-1)
[20] = target: HIV-1 JR-CSF Env F468A (HIV-1 (isolate JR-CSF)) (UniProt P20871)
[21] = target: HIV-1 Env of isolate MGRM-F1-021 (HIV-1)
[22] = target: HIV-1 Env of isolate MGRM-AE-006 (subtype AE) (HIV-1)
[23] = target: HIV-1 Env of isolate MGRM-A-009 (subtype A) (HIV-1)
[24] = target: HIV-1 Env of isolate 92UG005 (pseudovirus) (HIV-1)
[25] = target: HIV-1 Env of isolate MGRM-F1-023 (HIV-1)
[26] = target: HIV-1 JR-CSF Env S334A (HIV-1 isolate JR-CSF) (UniProt P20871)
[27] = target: HIV-1 Env of isolate MGRM-Chronic-B-004 (HIV-1)
[28] = target: HIV-1 MGRM-C-028 Env (HIV-1)
[29] = target: HIV-1 Env of isolate MGRM-AE-001 (subtype AE) (HIV-1)
[30] = target: HIV-1 Env of isolate 92RW008 (pseudovirus) (HIV-1)
[31] = target: HIV-1 envelope glycoprotein (Env) of isolate MGRM-Chronic-B-004, on pseudovirus (HIV-1)

Chain of 1443_C16 (PG16) (TCN-116) (antibody) (VH): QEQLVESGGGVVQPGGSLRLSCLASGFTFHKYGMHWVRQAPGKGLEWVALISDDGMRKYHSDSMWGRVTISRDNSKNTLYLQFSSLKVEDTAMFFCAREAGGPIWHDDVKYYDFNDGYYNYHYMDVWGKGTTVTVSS
Chain of 1443_C16 (PG16) (TCN-116) (antibody) (VL): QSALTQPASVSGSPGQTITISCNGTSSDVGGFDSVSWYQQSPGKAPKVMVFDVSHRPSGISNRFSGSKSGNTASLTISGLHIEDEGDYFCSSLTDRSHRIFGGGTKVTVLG

Substance | IC50 (µg/ml), pseudovirus neutralization [1] [µg/mL] | IC50 (µg/ml), pseudovirus neutralization [2] [µg/mL] | IC50 (µg/ml), pseudovirus neutralization [3] [µg/mL] | IC50 (µg/ml), pseudovirus neutralization [4] [µg/mL] | IC50 (µg/ml), pseudovirus neutralization [5] [µg/mL] | IC50 (µg/ml), pseudovirus neutralization [6] [µg/mL] | IC50 (µg/ml), pseudovirus neutralization [7] [µg/mL] | IC50 (µg/ml), pseudovirus neutralization [8] [µg/mL] | IC50 (µg/ml), pseudovirus neutralization [9] [µg/mL] | IC50 [10] [µg/mL] | IC50, pseudovirus neutralization [11] [µg/mL] | IC50 (µg/ml), pseudovirus neutralization [12] [µg/mL] | IC50 (µg/ml), pseudovirus neutralization [13] [µg/mL] | IC50, pseudovirus neutralization [14] [µg/mL] | Fold IC50 increase relative to wild-type (pseudovirus neutralization) [20] [fold] | Fold IC50 increase relative to wild-type [26] [fold] | IC50, pseudovirus neutralization [28] [µg/mL] | other results
2F5 (antibody) | 3.24 | 44.7 | 5.42 | 0.25 | > 50 | > 50 | > 50 | 2.41 | > 50 | 1.61 | 8.61 | > 50 | > 50 | > 50 | – | – | – | –
5147_N06 (PGT-130) (antibody) | – | – | – | – | – | – | – | – | – | – | – | – | – | – | 0.4 | 0.5 | > 10 | IC50, pseudovirus neutralization [15]: 0.01 µg/mL; IC50, pseudovirus neutralization [16]: > 50 µg/mL; IC50 (µg/mL), pseudovirus neutralization [17]: 0.046 µg/mL; IC50 (µg/mL), pseudovirus neutralization [18]: 0.061 µg/mL; IC50, pseudovirus neutralization [19]: > 50 µg/mL; IC50 (µg/mL), pseudovirus neutralization [21]: > 50 µg/mL; IC50, pseudovirus neutralization [22]: 0.009 µg/mL; IC50, pseudovirus neutralization [23]: 0.308 µg/mL; IC50 (µg/mL), pseudovirus neutralization [24]: 0.959 µg/mL; IC50 (µg/mL), pseudovirus neutralization [25]: 0.05 µg/mL; IC50 (µg/mL), pseudovirus neutralization [27]: 0.01 µg/mL; IC50, pseudovirus neutralization [29]: 1 µg/mL; IC50 (µg/mL), pseudovirus neutralization [30]: 0.039 µg/mL
1495_C14 (PGC14) (antibody) | > 50 | > 50 | > 50 | 23 | > 50 | > 50 | > 50 | > 50 | > 50 | > 50 | > 50 | > 50 | > 50 | > 50 | – | – | – | –
5123_A06 (PGT-125) (antibody) | – | – | – | – | – | – | – | – | – | – | – | – | – | – | 1 | 0.8 | 5.78 | IC50, pseudovirus neutralization [31]: 0.007 µg/mL
5141_B17 (PGT-126) (antibody) | – | – | – | – | – | – | – | – | – | – | – | – | – | – | 0.7 | > 30 | 0.283 | IC50, pseudovirus neutralization [31]: 0.01 µg/mL
4858_P08 (PGT-123) (antibody) | – | – | – | – | – | – | – | – | – | – | – | – | – | – | 0.5 | > 50 | 0.443 | IC50, pseudovirus neutralization [31]: 0.008 µg/mL
1443_C16 (PG16) (TCN-116) (antibody) | 0.01 | 28.3 | > 50 | 0.29 | 0.09 | 0.22 | 1.8 | 0.01 | 0.02 | > 50 | > 50 | 0.24 | > 50 | > 50 | – | – | – | –
4E10 (antibody) | 8.84 | 18.2 | 12.7 | 1.1 | 1.95 | 1.39 | 1.47 | 3.7 | > 50 | 2.75 | 7.46 | 2.88 | 7.59 | 42.9 | – | – | – | –
2G12 (antibody) | 45.2 | > 50 | 4.39 | 1.9 | > 50 | 0.29 | > 50 | 8.65 | > 50 | > 50 | > 50 | > 50 | > 50 | > 50 | – | – | – | –
5343_B08 (PGT-135) (antibody) | – | – | – | – | – | – | – | – | – | – | – | – | – | – | 1.1 | > 30 | – | IC50, pseudovirus neutralization [15]: 0.264 µg/mL; IC50, pseudovirus neutralization [16]: > 50 µg/mL; IC50 (µg/mL), pseudovirus neutralization [17]: > 50 µg/mL; IC50 (µg/mL), pseudovirus neutralization [18]: 2.21 µg/mL; IC50, pseudovirus neutralization [19]: > 50 µg/mL; IC50 (µg/mL), pseudovirus neutralization [21]: 0.065 µg/mL; IC50, pseudovirus neutralization [22]: > 50 µg/mL; IC50, pseudovirus neutralization [23]: > 50 µg/mL; IC50 (µg/mL), pseudovirus neutralization [24]: > 50 µg/mL; IC50 (µg/mL), pseudovirus neutralization [25]: 0.088 µg/mL; IC50 (µg/mL), pseudovirus neutralization [27]: > 50 µg/mL; IC50, pseudovirus neutralization [29]: > 50 µg/mL; IC50 (µg/mL), pseudovirus neutralization [30]: 1.42 µg/mL
b12 (antibody) | > 50 | > 50 | 0.73 | > 50 | 13.9 | > 50 | > 50 | 0.26 | > 50 | > 50 | > 50 | 4.01 | > 50 | > 50 | – | – | – | –
